Measured values reported in the Human Domainome abundance scans (Beltran et al. 2025).

B1: REST corepressor 3, residues 87 to 134; numbered along this chain, Q9P2K3 (parent)
chain: DEWTVEDKVLFEQAFSFHGKSFHRIQQMLPDKTIASLVKYYYSWKKTR
B2: Tyrosine-protein kinase Lck, residues 63 to 120; numbered along this chain, P06239 (parent)
chain: DNLVIALHSYEPSHDGDLGFEKGEQLRILEQSGEWWKAQSLTTGQEGFIPFNFVAKAN

Variants of: B1
Test: abundance fitness (aPCA) (normalised: wild type 0, dead -1); higher = more abundant; growth selection in yeast, the domain comes from the species named
Settings: Homo sapiens

Abundance fitness, by site and new letter:
K32: W -0.945 | H -0.45 | N -0.776 | E -0.836 | I -0.978 | P -0.742 | T -0.819 | R -0.473 | V -0.93 | C -0.816 | G -0.89 | Q -0.888 | F -0.814 | Y -0.885 | D -0.903 | A -0.854 | S -0.972 | M -0.799 | L -0.673
T33: A -0.55 | V -0.776 | P 0.275 | W -0.693 | C -0.805 | G -0.265 | E -0.647 | S -0.385 | L -0.686 | Q -0.658 | H -0.781 | K -0.109 | N -0.508 | Y -0.708 | R -0.688 | D -0.354
R48: E 0.016 | L 0.326 | G 0.024
K45: C -0.616 | I -0.424 | V -0.454 | W -0.61 | A -0.336 | R -0.087 | F -0.493 | L -0.597 | E -0.546 | Y 0.357 | N 0.014 | M 0.081 | G -0.69 | S -0.143 | Q -0.102
K39: S -0.168 | V -0.741 | D -0.575 | M -0.748 | C -0.546 | Y -0.193 | H 0.075 | E -0.574 | W -0.67 | L -0.732 | R -0.221 | N -0.276 | P -0.86 | A -0.481 | G -0.11 | T -0.422
P30: V -0.726 | W 0.322
K46: V -0.399 | F -0.54 | G -0.202 | H 0.242 | T -0.756 | L -0.645 | S -0.467 | A -0.053 | W -0.729 | E -0.575 | P -0.782
V38: H -0.723 | T -0.266 | F -0.663 | I 0.279 | Y -0.036 | S -0.215 | L -0.123 | D -0.612 | W -0.575 | M -0.115 | K 0.393 | Q -0.499 | A -0.182 | N -0.169 | E -0.12 | R -0.116 | C -0.647
A35: M -0.203 | Q -0.258 | W -0.439 | C -0.401 | V -0.545 | N -0.145 | E 0.308 | I -0.062 | F -0.098 | T 0.073 | G 0.045 | R -0.016 | K -0.124 | H -0.214 | D -0.391 | Y -0.451 | L -0.113 | P -0.345
S36: H -0.241 | R -0.478 | D -0.219 | C -0.008 | W -0.825 | K -0.627 | V -0.761 | L -1.04 | T -0.347 | Q 0.116 | M -0.288 | P -0.852 | G -0.167 | A -0.504
L37: R -0.885 | G -0.835 | A -0.673 | V -0.618 | I -0.35 | K -0.714 | E -0.628 | D -0.465 | M -0.711 | T -0.542 | S -0.773
T47: S -0.463 | R -0.071 | W -0.542 | A -0.672 | E -0.493 | I -0.623 | L -0.408 | Q -0.979 | P -0.075 | V -0.752
Y42: T 0.103 | A -0.234 | R 0.234 | H -0.236 | L 0.015 | Q -0.117 | W 0.056 | E 0.203 | P -0.821 | S 0.102 | D 0.252 | V 0.02 | G -0.036 | F -0.555 | M 0.311 | I -0.11 | N 0.216 | C -0.132
S43: V -0.076 | N -0.172 | A -0.128 | F -0.577 | M -0.547 | D 0.162 | L -0.49 | G -0.154 | W -0.327 | K 0.134 | T -0.312 | R 0.021 | E -0.084 | C -0.027
W44: F 0.414 | G -0.649 | R -0.541 | V -1 | K -0.393 | L -0.329 | A -0.78 | D 0.738 | T -0.394 | S -0.548
D31: K -0.136 | H -0.295 | E 0.026 | L -0.314 | C -0.45 | Y -0.027 | V -0.517 | I -0.733 | P -0.621 | A -0.429 | W -0.539 | T -0.316 | N -0.337 | R -0.253 | S 0.225 | G 0.029
Y41: A -0.817 | H -0.52 | F -0.644 | G -0.836 | R -0.654 | V -0.657 | K -0.398 | W -0.574 | I -0.599 | E -0.491
I34: L -0.419 | Q -0.768 | F -0.036 | N -0.267 | A -0.845 | C -0.869 | M -0.255 | S -0.677 | Y -0.508 | R -0.374 | E -0.455 | D -0.437 | K -0.67 | T -0.644 | P -1.08 | H -0.73 | V -0.747 | G -0.767
Y40: G -1.09 | K -0.346 | R -0.964 | P -0.324 | E -0.318 | V -0.824 | C -0.674

Variants of: B2
Test: as above
Settings: Homo sapiens

Abundance fitness: each site, then its substitutions
V4: M -0.173 | L -0.04 | A 0.123 | R -0.29 | F -0.054 | N -0.727 | G -0.431 | T -0.325 | H -0.073
A6: E -0.857 | F -0.907 | Q -0.84 | K -0.933 | L -0.845 | S -0.348 | M -0.637 | Y -0.99 | V -0.556 | C -0.217 | G -0.212 | W -1.2 | T -0.113 | I -0.772 | D -0.907 | H -0.756 | P -0.897 | N -0.956
L3: G -0.768 | I 0.091 | V -0.212 | Y -0.113 | R -0.178 | P -0.74 | M -0.094 | N -0.159 | C -0.273 | D -0.503 | W -0.232 | H -0.486 | S -0.343 | T -0.019 | A -0.79 | Q -0.122 | F -0.304
D1: Y -0.224 | V -0.519 | T -0.335 | M -0.334 | A -0.337 | W -0.331 | G -0.115 | L -0.487 | E -0.036 | N -0.115 | P -0.827
I5: M -0.26
N2: M -0.075 | W -0.526 | P -0.713 | R -0.32 | I -0.094 | Y -0.243 | Q -0.174 | S -0.128 | H 0.146 | D -0.193 | E -0.541 | L -0.185 | T -0.157 | F 0.034 | V -0.851 | G -0.428 | C -0.309
L7: Q -0.131 | P -0.38 | C -0.357 | S -0.21 | T -0.224 | K -0.232 | E -0.217 | F -0.705 | D -0.486 | I -0.079 | V -0.161 | R -0.298 | A -0.249 | M -0.097 | N -0.602 | H -0.429
